The source of these data is patent publication US20050209137A1 (published 2005).

B1: recombinant chicken leptin receptor binding domain (chLBD), amino acids 419-624 of the chicken leptin receptor (receptor)
chain: MAVDVNINIKCETDGYLTKMTCRWSANPNALLLGSSLQLRYHRSKIYCSNFPSTPPESEVKECHFQRNHSYECTFQPVFLLSGYTMWIELKHSLGTLESSPTCVVPADVVKPLPPSNIKAEITRNDGLLNVSWTNPVFTNDDLKFQIRYAVNREELTWELYEVLSVPTRSAVIEVQLCVEYIVQIRCRALDGLGYWSNWSRSAYAAVKD
notes: also called CLBD
B2: ovine leptin (fraction SP) (ligand, UniProt Q28603 1-146, looked up)
chain: VPIRKVQDDTKTLIKTIVTRINDISHTQSVSSKQRVTGLDFIPGLHPLLSLSKMDQTLAIYQQILASLPSRNVIQISNDLENLRDLLHLLAASKSCPLPQVRALESLESLGVVLEASLYSTEVVALSRLQGSLQDMLRQLDLSPGC
B3: chicken leptin (ligand, UniProt O42164 19-163, looked up)
chain: VPCQIFQDDTKTLIKTIVTRINDISHTSVSAKQRVTGLDFIPGLHPILSLSKMDQTLAVYQQVLTSLPSQNVLQIANDLENLRDLLHLLAFSKSCSLPQTSGLQKPESLDGVLEASLYSTEVVALSRLQGSLQDILQQLDISPEC
notes: also called chLeptin; ChLeptin

In experiment [1] the target is B2. The experiment in a line: gel filtration of hormone:chLBD mixtures at various molar ratios, retention times printed over the peaks. On the technique in general: Size exclusion chromatography separates by hydrodynamic size, large species first.
The experiment “chicken leptin” addresses B3. Description: SPR. (SPR reads the build-up and loss of mass on a sensor chip optically.)
The target in experiment [2] is T1, recombinant human leptin (human, UniProt P41159 22-167).
T1 construct: mature; also called hLEP; hLeptin
T1 sequence (P41159 22-167): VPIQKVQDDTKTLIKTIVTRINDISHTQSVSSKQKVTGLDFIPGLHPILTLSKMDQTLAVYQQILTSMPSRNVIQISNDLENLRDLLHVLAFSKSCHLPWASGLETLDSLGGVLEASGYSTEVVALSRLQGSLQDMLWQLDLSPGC
Description: SPR.

For experiment [3], the target named is T1, recombinant human leptin. Description: Scatchard plot (bound/free against bound) of the binding of 125I-hLep to chLBD, inset.
In experiment [4] the target is T2, long form of human leptin receptor, stably transfected in BAF/3 cells (cell homogenate) (human, UniProt P48357 22-1165).
T2 construct: whole, on cells; also called WT in BAF/3 cell homogenate; full-size membrane-embedded leptin receptor
T2 sequence (looked up): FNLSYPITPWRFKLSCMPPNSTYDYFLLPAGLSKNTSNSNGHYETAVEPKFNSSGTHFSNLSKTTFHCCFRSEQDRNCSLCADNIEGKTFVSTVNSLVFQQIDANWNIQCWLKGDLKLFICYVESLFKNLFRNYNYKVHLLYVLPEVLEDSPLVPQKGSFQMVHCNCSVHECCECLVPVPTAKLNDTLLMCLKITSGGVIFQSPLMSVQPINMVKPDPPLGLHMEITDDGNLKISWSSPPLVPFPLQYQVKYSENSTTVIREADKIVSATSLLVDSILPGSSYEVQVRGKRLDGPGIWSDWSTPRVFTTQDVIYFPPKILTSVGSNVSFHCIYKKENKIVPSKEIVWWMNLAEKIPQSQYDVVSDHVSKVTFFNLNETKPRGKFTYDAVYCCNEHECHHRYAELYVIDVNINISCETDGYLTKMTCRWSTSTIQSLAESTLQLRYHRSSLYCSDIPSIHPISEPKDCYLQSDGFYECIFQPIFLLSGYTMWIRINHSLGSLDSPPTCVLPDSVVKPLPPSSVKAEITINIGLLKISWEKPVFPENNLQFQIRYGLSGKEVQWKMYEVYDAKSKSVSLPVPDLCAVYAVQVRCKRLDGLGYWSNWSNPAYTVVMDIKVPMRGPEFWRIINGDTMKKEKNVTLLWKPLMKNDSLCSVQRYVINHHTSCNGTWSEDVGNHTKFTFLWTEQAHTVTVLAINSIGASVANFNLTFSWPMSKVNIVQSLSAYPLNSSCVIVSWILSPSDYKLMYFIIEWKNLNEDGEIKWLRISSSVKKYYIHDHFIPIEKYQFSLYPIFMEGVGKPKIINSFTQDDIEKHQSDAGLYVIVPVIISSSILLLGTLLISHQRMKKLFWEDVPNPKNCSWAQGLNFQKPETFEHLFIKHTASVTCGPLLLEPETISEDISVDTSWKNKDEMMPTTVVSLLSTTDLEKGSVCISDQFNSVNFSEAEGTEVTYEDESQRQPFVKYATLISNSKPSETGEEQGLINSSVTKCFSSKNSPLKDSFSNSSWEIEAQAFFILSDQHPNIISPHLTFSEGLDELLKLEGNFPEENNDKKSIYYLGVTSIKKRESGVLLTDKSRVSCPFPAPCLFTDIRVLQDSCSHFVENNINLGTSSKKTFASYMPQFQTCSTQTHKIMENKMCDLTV
The experiment in a line: competition of unlabeled leptin with 125I-human leptin for binding to homogenate of BAF/3 cells transfected with the long form of human leptin receptor. As to the method:
(§1) The specific binding (%) in experiments performed with human, ovine, and chicken leptins and their mutants were, respectively, 7.3% in A, and 8.1% in B, and the nonspecific binding was respectively, 5.4 and 14%. All values for specific binding were normalized, and the solid lines and the IC₅₀ values were calculated using the PRIZMA curve-fitting program (Author, A. (1994) GraphPad Prism™, Version 2.0, GraphPad Software Inc., San Diego, Calif.).
(§2) Binding Assays—Radiolabeled human ¹²⁵I-leptin served as a ligand, and other (human, ovine, and chicken) nonlabeled leptins served as competitors. The experiments were conducted using either recombinant LBD or homogenates of BAF/3 cells stably transfected with the long form of hLEP receptor. In the latter case, the cells were cultured in Dulbecco's modified Eagle's medium supplemented with 5% fetal calf serum in the presence of IL-3 to minimize leptin-receptor down-regulation until a concentration of 10⁶ cells/ml was reached. Then the cells were spun and stored at −70° C. […] Then supernatant was carefully aspirated, and the precipitates were counted in a Kontron ?-counter.

The target of experiment [5] is T3, recombinant human leptin receptor leptin-binding domain (LBD), amino acids 428-635 of the human leptin … (human, UniProt P48357 428-635).
T3 construct: also called hLBD; human LBD
T3 sequence: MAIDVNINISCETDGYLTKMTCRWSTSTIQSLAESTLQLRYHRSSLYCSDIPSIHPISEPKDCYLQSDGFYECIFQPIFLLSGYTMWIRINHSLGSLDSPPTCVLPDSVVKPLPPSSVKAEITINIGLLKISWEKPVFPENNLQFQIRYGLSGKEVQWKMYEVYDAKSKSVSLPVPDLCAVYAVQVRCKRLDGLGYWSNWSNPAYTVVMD
Description: competition of unlabeled leptin with 125I-human leptin for binding to soluble recombinant LBD, precipitation of the complex and counting. The method, then: as §1, §2

Experiment [6] deals with B1. The experiment in a line: inhibition of binding of 125I-hLep to chLBD by unlabeled leptin; the curve only falls to about 66 % at the highest concentration shown (about 10^-4.2 M), the printed value lies beyond the range. The method, then:
Binding Assays—Radiolabeled human ¹²⁵I-leptin served as a ligand, and other (human, ovine, and chicken) nonlabeled leptins served as competitors. The experiments were conducted using either recombinant LBD or homogenates of BAF/3 cells stably transfected with the long form of hLEP receptor. In the latter case, the cells were cultured in Dulbecco's modified Eagle's medium supplemented with 5% fetal calf serum in the presence of IL-3 to minimize leptin-receptor down-regulation until a concentration of 10⁶ cells/ml was reached. Then the cells were spun and stored at −70° C. […] Each tube contained 150 or 200 μl of reaction buffer in the case of the assay with the cells or recombinant LBD, respectively, 100 μl of ¹²⁵I-hLEP (100,000 cpm for cells or 180,000 cpm for binding domain assays), and 100 μl of different leptin solutions (providing 0-5000 ng/tube) in the reaction buffer, and the reaction was started by addition of 150 μl of cell homogenate or 100 μl of LBD (20 ng). The tubes were incubated for 24 h at room temperature. Then the leptin receptor complex was precipitated by adding 250 μl of 1% (w/v) bovine immunoglobulin and 500 μl of 20% (w/v) polyethylene glycol. After thorough mixing, the tubes were incubated for 20 min at 4° C. and centrifuged at 12,000×g for 15 min at 4° C. Then supernatant was carefully aspirated, and the precipitates were counted in a Kontron ?-counter. […]

Experiment [7] deals with T3, recombinant human leptin receptor …. The experiment in a line: SPR.
Experiment [8] addresses long form of human leptin receptor, stably transfected in BAF/3 cells (cell homogenate) (human) (UniProt P48357). The experiment in a line: competition with 125I-hLEP, homogenate of BAF/3 cells with long-form human leptin receptor.

For B1, the binding result in [1] is on record as “binds”. In the experiment with chicken leptin, this molecule came in with a Kd of 1300 nM, a koff of 0.076 s⁻¹ and a kon of 58300 M⁻¹ s⁻¹. Besides, in the experiment with recombinant human leptin [2], the Kd was 78.5 nM, the koff came to 0.0143 s⁻¹ and the kon is 183000 M⁻¹ s⁻¹. The Kd with recombinant human leptin [3] is 3.9 nM.

Consider B2, for which the “IC50 (read off the curve)” value is about 0.6 nM in [4] and about 8 nM in experiment [5].

Consider B3, for which the IC50 in experiment [6] was 88000 nM. Moreover, in experiment [7], the Kd amounted to 380 nM, the koff is 0.0052 s⁻¹ and the kon stood at 13500 M⁻¹ s⁻¹. For the same molecule, the fold lower capacity to displace than hLEP in experiment [8] was determined as 20 fold.

A word on the Kd: it is the free concentration of one partner at which half of the binding sites on the other are occupied at equilibrium, for simple one-to-one binding. By koff is commonly meant the rate constant with which the complex falls apart. For orientation: kon means the second-order rate constant of association. One may read the IC50 as the concentration needed to halve the response being measured.
